According to the RNAGym collection of RNA variant scans (doi:10.1073/pnas.2313332121):

B1: TPR t1 (parent)
chain: GACCAAUCUGCCCUCAGAGCUCGAGAACAUCUUCGGAUGCAGAGGAGGCAGGCUUCGGUGGCGCGAUAGCGCCAACGUCCUCAACCUCCAAUGCAUCCCACCACAUGAUGAUGCCUGAAGAGCCUUGGUUUUUUG

Variants of: B1
Test: polymerase ribozyme fitness, log enrichment relative to wild type (log ratio); higher = more active; in vitro selection for triplet polymerase activity
Procedure, shortened: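 Mutant libraries for each subunit of a heterodimeric triplet polymerase ribozyme were made by PCR and then transcribed. Each library underwent one round of in vitro selection in triplicate: annealing with a biotinylated primer, the partner subunit and triplets, frozen incubation at −7 °C, gel excision of extended constructs, streptavidin-bead capture and RT-PCR. Input and output libraries were Illumina-sequenced, and only genotypes with ≥10 input reads and ≥1 read per output were kept. Fitness is the logarithm, base 2, of genotype enrichment over wild-type enrichment, computed from inverse-variance-weighted replicate averages.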

| Variant | polymerase ribozyme fitness (log ratio) |
| --- | --- |
| C88G U106G | -2.4 |
| A91G C101U G110A | -2.85 |
| C82U A90U C97U A118G | -2.4 |
| C88A A111U | -4.33 |
| U87C U96A | 0.252 |
| U87G U92A G110A | -4.75 |
| C80U G120C G127C | -0.289 |
| C89A C124A | 0.985 |
| U87C C99A C101U U116C | -6.81 |
| C82G C88G | -1.26 |
| C88G U131C | -0.249 |
| C80U C114G | -3.48 |
| C80U G120U U129G | -0.816 |
| C88G G128C | -3.43 |
| U92A U131G | -2.59 |
| C82G C85A A111G G113U U130G | -4.27 |
| C85G C99U | -4.35 |
| G93A | -0.498 |
| C86U U131G | -0.498 |
| A84C C89A G113A | -2.63 |
| C89G G113C G122U | -2.99 |
| C80U G128C | -3.33 |
| C82A G93C C97U G113U | -4.46 |
| C86U C102A U112A C114A | -4.14 |

| Variant | polymerase ribozyme fitness (log ratio) |
| --- | --- |
| C88A C101U | -0.505 |
| U81A C115G | -2.4 |
| A90C C97A C99G G113A G122U | -7.3 |
| A90U U133G | -1.46 |
| A84U G110C U130C | -4.16 |
| A90G U112G | 1.3 |
| U92C A118U | -0.718 |
| U87C A95U C102A C124A G128C | -3.08 |
| U87A U106G | -1.35 |
| C89U A108G C114U | -4.44 |
| U87G U106G | -1.41 |
| C86U A100U G110A U129G | -3.54 |
| A90C C97U G113A | -2.12 |
| C85G U131A | -1.92 |
| A90U C114G A118G | -3.15 |
| A91U G128U | -3.95 |
| C82A C98A C114U | -5.87 |
| G93A A118U U133A | 0.0816 |
| C85U A118G | -0.773 |
| C89A G113C | -1.8 |
| U87C C99U U129G | -3.62 |
| A91U U132C | -1.79 |
| C82A A103G | -4.08 |
| C86U A111G C123A G127A | -2.33 |

| Variant | polymerase ribozyme fitness (log ratio) |
| --- | --- |
| U87A C102U C104A | -1.05 |
| G93A C102A | -1.81 |
| G93A C102U | -2.73 |
| C88A G135U | -0.929 |
| U92C U106G G135C | -3.67 |
| C85A C115U | -2.7 |
| A84U G93A C115G | -2.08 |
| C86A C101U | -0.0895 |
| C82A C89G C101A C102A U112C C123A | -6.34 |
| C86A U116G | -2.89 |
| C89G G127U | -2.9 |
| C85U U112A | 0.416 |
| C82G G120A | -0.124 |
| C82G G120U | -0.592 |
| C88A C94G U112C G120C | -1.09 |
| A84G C85U | 0.384 |
| U92A G93C | -2.69 |
| C82U C115U | -1.02 |
| C82U C115A | -0.595 |
| C82G A90G A91G C101G | -2.95 |
| C89A G117U | -4.53 |
| C89A G117C | -4.96 |
| C89A G117A | -1.73 |
| U81A A105U U132C | -2.04 |

| Variant | polymerase ribozyme fitness (log ratio) |
| --- | --- |
| C85G G110C | -4.96 |
| G93A C101U | -1.15 |
| A91C C114U G127A | -4.1 |
| C88U | -0.0459 |
| C88A | -0.325 |
| C88G | -0.581 |
| C85A A95C | -2.61 |
| C89G A90G G127C | -2.22 |
| C80U G135U | -0.986 |
| U87A C88A G110U G127A | -3.99 |
| C82G A84G | -0.89 |
| C89G C123G | 0.45 |
| C89A G93A G120A | -1.81 |
| C82A G93A | -0.17 |
| U92A C101A | -3.47 |
| C85A U112A C115U U130C | -2.28 |
| C85U C124G | 0.923 |
| A84C C98U | -1.5 |
| C80U C115G | -0.729 |
| C88U C89A A121U G122A | -1.15 |
| C82U U96G G127U | -1.83 |
| C89A A121G | 1.44 |
| G93A U130G | -1.45 |
| C85U U133A | -0.839 |

| Variant | polymerase ribozyme fitness (log ratio) |
| --- | --- |
| A83C C89U A95C | -0.794 |
| C86G A111G G135A | -0.134 |
| C89U C124U | 1.37 |
| C89U C124A | 0.152 |
| U87A C89U C123A C124G | 1.56 |
| A91C G127C | -2.93 |
| C85A A121C | 0.793 |
| A83U G127U | -1.08 |
| C85U A108U C123G | -6.32 |
| C82A C89A | -2.78 |
| C88U G120U U126G | -3.22 |
| C89G U109A | -5.37 |
| C89G U109G | -5.16 |
| U87A U106A G113A | -2.17 |
| C85A G113A A121C | -2.05 |
| A84U U112C | 1.2 |
| A90G A119U | 0.257 |
| C86A U96C | -0.678 |
| C85U G113C C114A | -5.96 |
| A83C A84C A119G | 0.957 |
| C89U C104A | -1.84 |
| U81C C82A C98U | -3.03 |
| C88A U106A U109A U126A U131G | -5.92 |
| U87A A111G G127C U131A | -3.23 |

| Variant | polymerase ribozyme fitness (log ratio) |
| --- | --- |
| U81C C123A | -0.309 |
| C82U U96G | -1.12 |
| A84U A90U | -1.49 |
| A83G G120C | 0.655 |
| A83G G120A | 0.774 |
| C82G A90U | -2.11 |
| C82U U112A U130G | 0.499 |
| C89A G128C | -4.25 |
| C88A C115U | -0.599 |
| A83U G113C G120U U132A | -4.48 |
| C85G C114U | -3.59 |
| A83U C114A | -1.1 |
| C86G C88U A105G | -4.95 |
| G93A C98U | -1.72 |
| C88A G113C G122A U129A | -5.29 |
| U81G G122U C123G U129A | -4.51 |
| A83G A84U C102A U112A G127U | -3.04 |
| C88G G110C | -5.26 |
| C85A G122A | -1.14 |
| A83C C97A | -3.66 |
| C88A U106A | -0.303 |
| U92A A118U | -1.95 |
| A84G G122A | -1.44 |
| U92G C104G | -7.29 |

| Variant | polymerase ribozyme fitness (log ratio) |
| --- | --- |
| C89G U126A | -2.85 |
| C82G G113A | -1.04 |
| A84C C88A | -0.593 |
| A90U C97U | -2.38 |
| A83G | -0.489 |
| A83C | -0.225 |
| A83U | -0.119 |
| C82A C102U | -1.82 |
| A90C C102U | -4.08 |
| U87C C89G | -1.1 |
| C86A A95G | -0.915 |
| C89A G93A | -2.99 |
| A91G G110U | -2.66 |
| G93A G110A U112A | -2.76 |
| C86A A111C | 0.315 |
| A91C C123A U133G | -1.07 |
| A91G C104A | -2.34 |
| C88G G120A A121C G135U | -0.939 |
| C88U C94U | -1.32 |
| U92A C104U | -3.56 |
| C85U U109G | -5.2 |
| C82U U109G U130G | -6.23 |
| U87G C94A G120U | -0.366 |
